In article PMC9300723:

Target: F5M-σ^A1.1^(S2C), fluorescein-labelled σ1.1 domain of Pae σ^A (Pseudomonas aeruginosa)
Experiment: fluorescence polarisation; 2 nM fluorescein-labelled σ1.1 domain, Pae RNAP core enzyme 0-4096 nM; 10 mM Tris-HCl pH 7.7, 100 mM NaCl, 1 mM DTT, 1% glycerol, 0.025% Tween-20; 10 min at room temperature

With “Pae RNAP core enzyme (from UniProt O52760 1-333; Q51561 1-1357; Q9HWC9 2-1399; B7V5M8 1-88) (complex)” the Kd was 220 nM.
